Measured values as given in the RNAGym collection of RNA variant scans (doi:10.1073/pnas.2313332121).

B1: TPR t1 (parent)
chain: GACCAAUCUGCCCUCAGAGCUCGAGAACAUCUUCGGAUGCAGAGGAGGCAGGCUUCGGUGGCGCGAUAGCGCCAACGUCCUCAACCUCCAAUGCAUCCCACCACAUGAUGAUGCCUGAAGAGCCUUGGUUUUUUG

Variants of: B1
Experiment: polymerase ribozyme fitness, log enrichment relative to wild type (log ratio); higher = more active; in vitro selection for triplet polymerase activity
Procedure, shortened: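 After PCR construction and transcription, each subunit's mutant library from a heterodimeric triplet polymerase ribozyme was annealed with a biotinylated primer, the partner subunit and triplets. Incubation was frozen, at −7 °C, and extended constructs were gel-excised, bound to streptavidin beads and amplified by RT-PCR, in one selection round done in triplicate. Fitness is the logarithm of a genotype's enrichment divided by that of the wild type, from inverse-variance-weighted replicate averages of Illumina-sequenced inputs and outputs. The base of the logarithm is 2, and genotypes needed ≥10 input reads and ≥1 read per output.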

| Variant | polymerase ribozyme fitness (log ratio) |
| --- | --- |
| A18U C22U A43G G60A | -6.88 |
| C53G C98G | -5.63 |
| G71U G120A C123U U133G | -3.23 |
| A2U C101U | -1.78 |
| A29G A84C C94U U106A G120A U125G | -0.885 |
| A27U G63A G69U U131C | -4.16 |
| A27U C62A | -4.1 |
| C72G U92C C94A | -3.47 |
| C40G A50U G120C | -0.881 |
| A27U C53A G71U C88A G117C | -6.86 |
| G44C U106C G135C | -1.28 |
| U9A G42A A43G G47U C56U | -3.28 |
| A5C G10A U92G | -3.52 |
| A46G C70U | -0.0806 |
| A46C C53G G57C A66C C115U G122A | -6.53 |
| C73U G110A G117A C124U | -4.95 |
| A2U U38G C70U C98U G128U | -6.66 |
| C3A C53A G57A C70A A95C G117C | -5.27 |
| G45A C94U | -0.815 |
| C11A C13G C31U A46U U109G | -7.98 |
| C53A U130G | -0.264 |

| Variant | polymerase ribozyme fitness (log ratio) |
| --- | --- |
| G17U U55C | -2.57 |
| C64U C80U C88U A111G C114A | -5.18 |
| C49G C97G | -4.99 |
| A29U G60A U78C C102A U112C | -3.58 |
| C11A C115U | -2.42 |
| G61A A91C U96A | -1.49 |
| C8A G117A A121U | 1.21 |
| C11U G110C | -2.8 |
| A46C C80G U130C | -6.42 |
| C62A A74U U81C | -5.14 |
| C20G A27G G120A | -5.6 |
| G36A A111G | -3.41 |
| A6C G36U U96G G120C G122A | -0.981 |
| G69A U112C | -0.685 |
| U32C G52U U81G | -4.15 |
| C40A C49A C53U G110A U130G | -4.63 |
| A50C G63A U125G G127U | -2.41 |
| G58A A84U | -0.731 |
| G51U C73A U106A C124A U126A U129A U131A | -2.8 |
| U9A G44U C123A | 0.274 |
| C13A U21A G47U U109A | -5.74 |

| Variant | polymerase ribozyme fitness (log ratio) |
| --- | --- |
| C28A G44A G48A C73U U106A | -5.87 |
| G71U G107A | -4.04 |
| G19C G42C G110U G113A | -5.33 |
| C49G A100C C101U | -1.62 |
| C8U G45A G52C C123G | -0.41 |
| C12U C86A C98U | -0.708 |
| A50C C62A C98A A111U U112A | -6.58 |
| C13G G47A C88U C102U U116G C123A | -4.62 |
| G36A A43U | -2.94 |
| A50U G51A C73U | -3.5 |
| C79A C123A | -0.392 |
| A41G C104A G113C | -3.19 |
| U9G U32C G52C | -0.471 |
| C11U C64A | -4.93 |
| G35U G45A | -5.37 |
| A5U C53U G63A C79G G127C | -2.9 |
| G44U C70A U116C | -4.01 |
| C102U C123A | -2.63 |
| A6C U7A C8G C13A G42C C72A C76G | -2.51 |
| G120A A121C | -0.98 |
| A6U C8U | 0.736 |

| Variant | polymerase ribozyme fitness (log ratio) |
| --- | --- |
| C70G U81C | -3.83 |
| C3A C22G A37G G71A A111G | -6.05 |
| C20U A43U C53G | -2.28 |
| A6U G57U G61A U87C C99A C124A | -5.7 |
| C56G G120A | 0.238 |
| U7C C12U U106A C115U G127U | -1.03 |
| U54C A75G C79A | -0.763 |
| U38A G42U U59A C88G A95U C114A | -4.56 |
| G42C A111G | -1.3 |
| C11A U30C U81A C104G A111U A119G U132C | -6.53 |
| G35U C72U G117C | -7.07 |
| U7G C70U C102A | -2.24 |
| U21C U112G | -0.886 |
| C70U C86A | -1.13 |
| G35U | -4.66 |
| C56A U92G C101G A121G | -4.49 |
| A37G A68G A111C C124G | -3.95 |
| C28A U55G G71A | -5.6 |
| C114U C124G | -0.85 |
| C62U A74G C88A | -3.21 |
| C73U U109A | -4.25 |
